Test results from patent publication US20190142905A1 (UREKA SARL, published 2019).
Square brackets hold non-standard residues; d marks the D form. Ends that are not written are not given here. A^u = urea residue with alanine side chain

T1: mouse GLP-1 receptor endogenously expressed in βTC6 cells (mouse, UniProt O35659 22-463)
T1 sequence (looked up): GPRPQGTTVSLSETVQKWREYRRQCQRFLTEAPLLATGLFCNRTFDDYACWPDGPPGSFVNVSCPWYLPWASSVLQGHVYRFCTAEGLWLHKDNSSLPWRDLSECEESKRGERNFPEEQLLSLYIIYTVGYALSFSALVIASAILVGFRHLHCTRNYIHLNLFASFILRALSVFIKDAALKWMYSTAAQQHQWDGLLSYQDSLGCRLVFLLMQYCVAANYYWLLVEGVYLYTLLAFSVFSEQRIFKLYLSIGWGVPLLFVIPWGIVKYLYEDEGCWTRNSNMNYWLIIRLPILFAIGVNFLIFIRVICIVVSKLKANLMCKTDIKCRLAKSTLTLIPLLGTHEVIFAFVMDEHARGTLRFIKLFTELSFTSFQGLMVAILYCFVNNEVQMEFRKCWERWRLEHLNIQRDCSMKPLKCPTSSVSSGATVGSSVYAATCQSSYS

B1: Compound 58 (peptide)
peptide: HSQGTFTSDYSKYLDSRRAQDFVQWXXNT
modifications: A^u at position 26 (urea residue with alanine side chain); Nle (norleucine) at position 27
B2: Compound 51 (peptide)
peptide: HSQGTFTSDYSKYXDSRRAQDFVQWLXNT
modifications: A^u at position 14 (urea residue with alanine side chain); Nle (norleucine) at position 27
B3: Compound 52 (peptide)
peptide: HSQGTFTSDYSKYLDXRRAQDFVQWLXNT
modifications: A^u at position 16 (urea residue with alanine side chain); Nle (norleucine) at position 27
B4: Compound 43 (peptide)
peptide: HXEGTFTSDVSSYLEGQAAKEFIAWLVKGRG
modifications: A^c at position 2 (N,N'-linked carbomyl / carbamate residue with alanine side chain)
B5: Compound 53 (peptide)
peptide: HSQGTFTSDYSKYLDSXRAQDFVQWLXNT
modifications: A^u at position 17 (urea residue with alanine side chain); Nle (norleucine) at position 27
B6: Compound 57 (peptide)
peptide: HSQGTFTSDYSKYLDSRRAQDFVQXLXNT
modifications: A^u at position 25 (urea residue with alanine side chain); Nle (norleucine) at position 27
B7: Compound 55 (peptide)
peptide: HSQGTFTSDYSKYLDSRRAQDFXQWLXNT
modifications: A^u at position 23 (urea residue with alanine side chain); Nle (norleucine) at position 27
B8: Compound 36 (peptide)
peptide: HSQGTFTSDYSKYLDSRRAQDFVQWLXNX
modifications: Nle (norleucine) at position 27; A^u at position 29 (urea residue with alanine side chain)
B9: Compound 35 (peptide)
peptide: HSQGTFTSDYSKYLDSRRAQDFVQWLXXT
modifications: Nle (norleucine) at position 27; A^u at position 28 (urea residue with alanine side chain)

How the values were obtained:
Assay in all cases: cell-based or functional assay
[1] = molecular target: human glucagon receptor expressed in transfected CHO cells (human, UniProt P47871 26-477)
[2] = molecular target: T1, mouse GLP-1 receptor endogenously …
[3] = molecular target: T1, mouse GLP-1 receptor endogenously …; remark: listed apart in the source

Binder | EC50, Glucagon Functional Assay (cAMP production, HTRF) [1] | EC50, GLP-1 Functional Assay (cAMP production, HTRF) [2] | % bioactivity of reference (reference compound 1) [3]
B1 | 35 nM | – | –
B2 | 68 nM | – | –
B3 | 34 nM | – | –
HAEGTFTSDVSSYLEGQAAKEFIAWLXKGRG (A^u at position 27 (urea residue with alanine side chain)) [Compound 7] | – | 0.22 nM | –
HAEGTFTSDVSSYLEGQAAKEFIAWLVXGRG (K^u at position 28 (urea residue with lysine side chain)) [Compound 46] | – | – | 157%
HAEGTFTSDVSSYLEGQAAKEFIAXLVKGRG (W^u at position 25 (urea residue with tryptophan side chain)) [Compound 4] | – | 0.26 nM | –
HAEGTFTSDVSSYLEGQAAKEFIAXLVKGRG (A^u at position 25 (urea residue with alanine side chain)) [Compound 3] | – | 0.46 nM | –
XAEGTFTSDVSSYLEGQAAKEFIAWLVKGRG (H^u at position 1 (urea residue with histidine side chain)) [Compound 12] | – | 280 nM | –
HAEGTFTSDVSSYLEGQXAKEFIAWLVKGRG (A^u at position 18 (urea residue with alanine side chain)) [Compound 45] | – | 0.036 nM | 200%
HAEGTFTSDVSSYLEGQAAKEFIAWLVKXRG (G^u at position 29 (urea residue with glycine side chain)) [Compound 25] | – | 0.074 nM | –
HAEGTFTSDVSSYLEGQAAKEFIAWXVKGRG (A^u at position 26 (urea residue with alanine side chain)) [Compound 5] | – | 0.42 nM | –
HAEGTFTSDVSSYLEGQAAKEFIXWLVKGRG (A^u at position 24 (urea residue with alanine side chain)) [Compound 2] | – | 1.5 nM | –
HAEGTFTSDVSSYLEGQAAKEFIAWLVKGRX (G^u at position 31 (urea residue with glycine side chain)) [Compound 27] | – | 0.081 nM | –
HAEGTFTSDVSSYXEGQAAKEFIAWLVKGRG (Y^u at position 14 (urea residue with tyrosine side chain)) [Compound 44] | – | 0.048 nM | 150%
B4 | – | – | 9%
B5 | 0.67 nM | – | –
B6 | 22 nM | – | –
B7 | 34 nM | – | –
B8 | 0.026 nM | – | –
H[A^u]EGTFTSDL[A^u]KQLEEEAVRLFIEWLKNGGPSSGAPPSKKKKKK [Compound 73] | – | 0.34 nM | –
B9 | 0.44 nM | – | –
